Measured values as given in the supplement of paper PMC7877785.
± gives the uncertainty stated by the source.

Assay: self-splicing fitness, log relative to wild type (ln ratio); higher = more splicing; Tetrahymena group I intron in knt gene, E. coli kanamycin selection, DiMSum; sequences stand for … in CUCUCU…GGAGGGAAAAGUUAUCAGGCAUGCACCUGGUAGCUAGUCUUUAAACCAAUAGAUUGCAUCGGUUUAAAAGGCAAGACCGUCAAAUUGCGGGAAAGGGGUCAACAGCCGUUCAGUACCAAGUCUCAGGGGAAACUUUGAGAUGGCCUUGCAAAGGGUAUGGUAAUAAGCUGACGGACAUGGUCCUAACCACGCAGCCAAGUCCUAAGUCAACAGAUCUUCUGUUGAUAUGGAUGCAGUUCACAGACUAAAUGUCGGUCGGGGAAGAUGUAUUCUUCUCAUAAGAUAUAGUCGGACCUCUCCUUAAUGGGAGCUAGCGGAUGAAGUGAUGCAACACUGGAGCCGCUGGGAACUAAUUUGUAUGCGAAAGUAUAUUGAUUAGUUUUGGAGUACUCGUGGUCG
Summary of the method: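 Fitness was computed with DiMSum as the error-weighted combination of replicate fold changes, kanamycin versus none, each normalised to wild type. The library randomised all eight intron nucleotides of the P1ex region, with the intron placed in the knt kanamycin-resistance gene on pET-22b(+) in E. coli BL21(DE3). Six replicate transformations were grown overnight at 37°C or 30°C on LB agar with or without 25 μg/mL kanamycin, plus 100 μg/mL carbenicillin, 50 μM IPTG and 0.2% rhamnose. Pooled colonies were amplicon-sequenced on an Illumina HiSeq 2500.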

Sequence | self-splicing fitness (ln) (30 °C) | self-splicing fitness (ln) (37 °C)
UGCGAGCAAUAUUACGAAGA | -3.24 ± 0.37 | -1.97 ± 0.28
UGCGAGCAAUAUUACGACAA | -1.55 ± 0.3 | -0.809 ± 0.2
UGCGAGCAAUAUUACGACAG | -2.55 ± 0.21 | -1.29 ± 0.18
UGCGAGCAAUAUUACGAGCA | -1.98 ± 0.18 | -2.37 ± 0.22
UGCGAGCAAUAUUACGAGUG | -2.85 ± 0.17 | -2.32 ± 0.28
UGCGAGCAAUAUUACGCCGA | – | -1.26 ± 0.4
UGCGAGCAAUAUUACGCGGC | -3.44 ± 0.33 | -3.46 ± 0.46
UGCGAGCAAUAUUACGCUAG | -2.68 ± 0.45 | –
UGCGAGCAAUAUUACGCUCG | -2.91 ± 0.22 | -1.92 ± 0.23
UGCGAGCAAUAUUACGGAAG | – | -2.26 ± 0.34
UGCGAGCAAUAUUACGGAUA | -2.36 ± 0.27 | -2.08 ± 0.36
UGCGAGCAAUAUUACGGAUG | -3.65 ± 0.16 | -2.02 ± 0.14
UGCGAGCAAUAUUACGGCAU | -2.64 ± 0.27 | –
UGCGAGCAAUAUUACGGCGG | -1.21 ± 0.084 | -0.816 ± 0.13
UGCGAGCAAUAUUACGGCUA | 0.388 ± 0.12 | 0.499 ± 0.15
UGCGAGCAAUAUUACGGUAU | -5.17 ± 0.38 | -2.32 ± 0.19
UGCGAGCAAUAUUACGGUUG | -1.51 ± 0.16 | -1.82 ± 0.26
UGCGAGCAAUAUUACGUAGC | -2.36 ± 0.27 | -2.05 ± 0.38
UGCGAGCAAUAUUACGUCGG | – | -1.91 ± 0.26
UGCGAGCAAUAUUACGUUCU | -1.68 ± 0.12 | -2.05 ± 0.14
UGCGAGCAAUAUUACGUUUU | -5.01 ± 0.45 | -3.25 ± 0.24
UGCUAGCAAUAUUACGAAGA | – | -2.09 ± 0.2
UGCUAGCAAUAUUACGAAGU | -2.88 ± 0.3 | -2.51 ± 0.49
UGCUAGCAAUAUUACGACUA | -0.649 ± 0.16 | -0.872 ± 0.14
UGCUAGCAAUAUUACGAGGU | -2.94 ± 0.27 | -3.27 ± 0.39

Sequence | self-splicing fitness (ln) (30 °C) | self-splicing fitness (ln) (37 °C)
UGCUAGCAAUAUUACGAUAC | -2.57 ± 0.28 | -1.93 ± 0.28
UGCUAGCAAUAUUACGAUGA | -1 ± 0.1 | -1.2 ± 0.09
UGCUAGCAAUAUUACGCGGU | -4.3 ± 0.42 | -2.36 ± 0.31
UGCUAGCAAUAUUACGGACG | 0.0612 ± 0.08 | 0.414 ± 0.099
UGCUAGCAAUAUUACGGCCC | -1.72 ± 0.23 | -0.878 ± 0.32
UGCUAGCAAUAUUACGGGCA | -3.8 ± 0.25 | -2.02 ± 0.19
UGCUAGCAAUAUUACGGUCC | -2.01 ± 0.19 | 0.11 ± 0.21
UGCUAGCAAUAUUACGGUCU | -0.539 ± 0.084 | -0.14 ± 0.08
UGCUAGCAAUAUUACGGUUC | -2.49 ± 0.16 | -1.69 ± 0.14
UGCUAGCAAUAUUACGUAAC | -3.31 ± 0.28 | -1.84 ± 0.29
UGCUAGCAAUAUUACGUAGU | -3.35 ± 0.2 | -2.71 ± 0.25
UGCUAGCAAUAUUACGUCGU | -2.15 ± 0.14 | -3.03 ± 0.31
UGGAAGCAAUAUUACGAAAG | -1.72 ± 0.16 | -0.893 ± 0.2
UGGAAGCAAUAUUACGAAGA | -2.23 ± 0.28 | -1.01 ± 0.28
UGGAAGCAAUAUUACGACAG | -0.462 ± 0.13 | -0.603 ± 0.19
UGGAAGCAAUAUUACGACAU | -2.825 ± 0.021 | -1.92 ± 0.035
UGGAAGCAAUAUUACGACCA | -0.871 ± 0.18 | -0.92 ± 0.21
UGGAAGCAAUAUUACGAGGU | -2.77 ± 0.42 | -2.08 ± 0.4
UGGAAGCAAUAUUACGAGUA | -1.94 ± 0.22 | -1.13 ± 0.17
UGGAAGCAAUAUUACGAUCU | -0.0165 ± 0.12 | -0.454 ± 0.15
UGGAAGCAAUAUUACGAUGA | -0.768 ± 0.18 | -0.0449 ± 0.17
UGGAAGCAAUAUUACGAUGC | -1.67 ± 0.25 | -1.13 ± 0.31
UGGAAGCAAUAUUACGCACG | -0.874 ± 0.12 | 0.34 ± 0.15
UGGAAGCAAUAUUACGCAUA | -1.68 ± 0.17 | -0.329 ± 0.14
UGGAAGCAAUAUUACGCUGG | -1.74 ± 0.12 | -1.26 ± 0.14

Sequence | self-splicing fitness (ln) (30 °C) | self-splicing fitness (ln) (37 °C)
UGGAAGCAAUAUUACGGCAA | -1.72 ± 0.39 | 0.0721 ± 0.21
UGGAAGCAAUAUUACGGUCG | -0.0238 ± 0.081 | 0.332 ± 0.11
UGGAAGCAAUAUUACGGUUU | -4.66 ± 0.34 | -2.59 ± 0.21
UGGAAGCAAUAUUACGUACG | -0.898 ± 0.11 | 0.202 ± 0.13
UGGAAGCAAUAUUACGUAGC | -2.29 ± 0.21 | -0.661 ± 0.24
UGGAAGCAAUAUUACGUUAA | -0.681 ± 0.36 | -0.67 ± 0.3
UGGAAGCAAUAUUACGUUUC | -2.56 ± 0.24 | -2.82 ± 0.38
UGGCAGCAAUAUUACGAACG | -0.0867 ± 0.16 | 0.145 ± 0.2
UGGCAGCAAUAUUACGAAUU | -3.42 ± 0.21 | -2.47 ± 0.22
UGGCAGCAAUAUUACGAUAG | -2.32 ± 0.098 | -0.473 ± 0.094
UGGCAGCAAUAUUACGAUCU | -0.344 ± 0.11 | -0.112 ± 0.11
UGGCAGCAAUAUUACGCAUA | -0.869 ± 0.096 | -0.265 ± 0.1
UGGCAGCAAUAUUACGCCAU | -3.71 ± 0.25 | –
UGGCAGCAAUAUUACGCGAC | -2.66 ± 0.35 | -1.64 ± 0.44
UGGCAGCAAUAUUACGCGCG | -0.287 ± 0.064 | 0.0127 ± 0.089
UGGCAGCAAUAUUACGCGGA | -1.48 ± 0.098 | -0.878 ± 0.095
UGGCAGCAAUAUUACGGAUC | -2.22 ± 0.24 | -1.99 ± 0.46
UGGCAGCAAUAUUACGGCCC | -1.18 ± 0.15 | -0.287 ± 0.21
UGGCAGCAAUAUUACGGGGC | -3.67 ± 0.47 | -2.18 ± 0.4
UGGCAGCAAUAUUACGGUAU | -3.72 ± 0.24 | -1.73 ± 0.17
UGGCAGCAAUAUUACGGUGU | -3.4 ± 0.14 | -2.41 ± 0.16
UGGCAGCAAUAUUACGUAUG | -0.256 ± 0.068 | -0.15 ± 0.092
UGGCAGCAAUAUUACGUCAA | -1.16 ± 0.099 | -0.518 ± 0.09
UGGCAGCAAUAUUACGUCCU | -0.363 ± 0.11 | 0.0307 ± 0.15
UGGCAGCAAUAUUACGUCGA | -0.694 ± 0.04 | 0.401 ± 0.058

Sequence | self-splicing fitness (ln) (30 °C) | self-splicing fitness (ln) (37 °C)
UGGCAGCAAUAUUACGUGGC | -3.92 ± 0.18 | -2.72 ± 0.19
UGGCAGCAAUAUUACGUGGU | -2.84 ± 0.15 | -2.99 ± 0.23
UGGCAGCAAUAUUACGUGUC | -3.85 ± 0.19 | -2.17 ± 0.19
UGGCAGCAAUAUUACGUGUG | -0.896 ± 0.043 | -0.192 ± 0.057
UGGCAGCAAUAUUACGUUAA | -1.16 ± 0.084 | -0.28 ± 0.084
UGGCAGCAAUAUUACGUUAC | -4.11 ± 0.46 | -2.46 ± 0.25
UGGCAGCAAUAUUACGUUUA | -0.478 ± 0.084 | 0.426 ± 0.096
UGGCAGCAAUAUUACGUUUU | -2.85 ± 0.14 | -0.527 ± 0.13
UGGGAGCAAUAUUACGAAAA | -2.22 ± 0.31 | -2.16 ± 0.34
UGGGAGCAAUAUUACGAAGU | – | -1.21 ± 0.3
UGGGAGCAAUAUUACGACGG | -2.22 ± 0.26 | -1.69 ± 0.39
UGGGAGCAAUAUUACGAUAA | -0.547 ± 0.44 | –
UGGGAGCAAUAUUACGAUAG | -3.25 ± 0.32 | –
UGGGAGCAAUAUUACGCAAG | -2.15 ± 0.36 | –
UGGGAGCAAUAUUACGCCGG | -2.45 ± 0.23 | -2.19 ± 0.31
UGGGAGCAAUAUUACGCGUU | -2.33 ± 0.28 | -2.02 ± 0.44
UGGGAGCAAUAUUACGCUAU | -1.67 ± 0.29 | -2.62 ± 0.38
UGGGAGCAAUAUUACGGACG | -1.52 ± 0.14 | -0.236 ± 0.15
UGGGAGCAAUAUUACGGAGC | -3.98 ± 0.46 | -1.65 ± 0.5
UGGGAGCAAUAUUACGGAUG | -3.69 ± 0.39 | -1.14 ± 0.26
UGGGAGCAAUAUUACGGGAC | -4.71 ± 0.46 | -2.7 ± 0.38
UGGGAGCAAUAUUACGGGAU | -3.11 ± 0.37 | -2.17 ± 0.29
UGGGAGCAAUAUUACGGGUG | -3.33 ± 0.47 | -0.981 ± 0.26
UGGGAGCAAUAUUACGUAAA | -1.97 ± 0.36 | –
